This is an account of results in PMC3817407.

Values joined by “and” are separate entries in the source; they are usually repeats but may differ in a detail not shown here. Equal entries are not always repeated.

One test deals with T1, ECF25_1643.
T1 chain: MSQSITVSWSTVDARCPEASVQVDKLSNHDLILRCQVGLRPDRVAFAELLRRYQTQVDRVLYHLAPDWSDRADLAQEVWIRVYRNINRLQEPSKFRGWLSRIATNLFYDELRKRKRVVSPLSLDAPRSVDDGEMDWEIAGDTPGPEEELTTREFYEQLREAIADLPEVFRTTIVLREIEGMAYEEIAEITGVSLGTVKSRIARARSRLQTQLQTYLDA

The target of the next test is T2, ECF02_915.
T2 chain: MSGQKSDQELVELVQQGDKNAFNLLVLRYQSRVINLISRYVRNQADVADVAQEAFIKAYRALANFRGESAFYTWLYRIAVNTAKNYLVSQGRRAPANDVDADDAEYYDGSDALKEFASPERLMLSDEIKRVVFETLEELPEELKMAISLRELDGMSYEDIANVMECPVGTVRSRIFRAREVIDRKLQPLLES

The next test addresses T3, ECF35_3582.
T3 chain: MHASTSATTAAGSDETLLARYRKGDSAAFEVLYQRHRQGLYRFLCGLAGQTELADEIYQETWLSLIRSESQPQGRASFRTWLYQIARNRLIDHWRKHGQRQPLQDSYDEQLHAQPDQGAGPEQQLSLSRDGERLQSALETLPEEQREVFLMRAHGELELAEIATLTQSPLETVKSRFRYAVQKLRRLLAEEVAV

The next test concerns the target T4, ECF28_1040.
T4 chain: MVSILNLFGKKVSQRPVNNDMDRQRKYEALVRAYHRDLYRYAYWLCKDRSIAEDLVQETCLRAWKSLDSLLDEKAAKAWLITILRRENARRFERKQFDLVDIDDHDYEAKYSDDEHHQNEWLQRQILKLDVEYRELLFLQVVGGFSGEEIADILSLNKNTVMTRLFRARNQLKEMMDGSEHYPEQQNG

For a further test, the target named is T5, ECF03_1198.
T5 chain: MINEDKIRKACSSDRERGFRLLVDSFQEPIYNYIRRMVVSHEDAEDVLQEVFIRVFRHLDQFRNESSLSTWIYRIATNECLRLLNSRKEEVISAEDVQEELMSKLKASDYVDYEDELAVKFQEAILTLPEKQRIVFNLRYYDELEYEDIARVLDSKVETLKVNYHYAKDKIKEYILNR

The next test deals with T6, ECF15_524.
T6 chain: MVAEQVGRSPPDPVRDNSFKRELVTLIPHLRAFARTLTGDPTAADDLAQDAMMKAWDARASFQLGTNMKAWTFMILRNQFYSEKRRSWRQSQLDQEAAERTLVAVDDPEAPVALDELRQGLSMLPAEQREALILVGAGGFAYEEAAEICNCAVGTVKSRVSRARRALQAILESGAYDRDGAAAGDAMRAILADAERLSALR

The target in the next test is T7, ECF01_3473.
T7 chain: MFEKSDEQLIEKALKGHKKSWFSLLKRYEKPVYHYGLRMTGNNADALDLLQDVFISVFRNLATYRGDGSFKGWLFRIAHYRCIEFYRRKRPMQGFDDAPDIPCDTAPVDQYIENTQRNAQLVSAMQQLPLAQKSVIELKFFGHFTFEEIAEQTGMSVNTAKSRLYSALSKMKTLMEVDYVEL

The next test deals with T8, ECF37_2513.
T8 chain: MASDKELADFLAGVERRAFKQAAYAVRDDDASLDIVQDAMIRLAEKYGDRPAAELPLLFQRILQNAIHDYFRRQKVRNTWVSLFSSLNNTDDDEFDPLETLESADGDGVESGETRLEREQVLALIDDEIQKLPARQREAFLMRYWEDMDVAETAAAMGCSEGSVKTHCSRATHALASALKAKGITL

A further test addresses T9, ECF28_1088.
T9 chain: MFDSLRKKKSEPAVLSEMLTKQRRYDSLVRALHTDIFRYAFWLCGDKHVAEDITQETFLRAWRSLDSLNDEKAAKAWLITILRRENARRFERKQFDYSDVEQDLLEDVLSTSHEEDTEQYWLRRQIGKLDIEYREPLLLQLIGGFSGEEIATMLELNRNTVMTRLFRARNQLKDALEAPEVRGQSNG

The next test concerns the target T10, ECF20_992.
T10 chain: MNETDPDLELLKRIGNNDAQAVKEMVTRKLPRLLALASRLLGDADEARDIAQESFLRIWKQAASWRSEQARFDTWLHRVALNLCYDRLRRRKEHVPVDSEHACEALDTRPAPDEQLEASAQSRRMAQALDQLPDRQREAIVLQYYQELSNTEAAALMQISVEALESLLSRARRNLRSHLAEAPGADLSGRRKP

For the next test, the target named is T11, ECF38_1322.
T11 chain: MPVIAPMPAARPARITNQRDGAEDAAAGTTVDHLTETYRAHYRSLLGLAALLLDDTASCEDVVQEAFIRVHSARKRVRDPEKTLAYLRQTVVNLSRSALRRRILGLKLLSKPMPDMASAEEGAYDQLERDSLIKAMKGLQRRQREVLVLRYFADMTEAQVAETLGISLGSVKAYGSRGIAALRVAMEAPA

For another test, the target named is T12, ECF22_1147.
T12 chain: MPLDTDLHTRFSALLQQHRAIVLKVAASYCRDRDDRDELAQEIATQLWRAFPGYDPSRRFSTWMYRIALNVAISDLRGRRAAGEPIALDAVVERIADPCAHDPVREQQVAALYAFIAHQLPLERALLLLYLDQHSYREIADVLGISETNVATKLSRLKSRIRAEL

In a further test the target is T13, ECF25_1645.
T13 chain: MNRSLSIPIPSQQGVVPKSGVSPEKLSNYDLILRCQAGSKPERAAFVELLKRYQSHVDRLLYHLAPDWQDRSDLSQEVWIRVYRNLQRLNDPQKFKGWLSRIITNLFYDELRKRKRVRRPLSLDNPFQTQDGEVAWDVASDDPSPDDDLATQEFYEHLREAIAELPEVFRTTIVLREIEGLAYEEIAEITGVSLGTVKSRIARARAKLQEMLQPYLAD

The next test deals with T14, ECF03_1244.
T14 chain: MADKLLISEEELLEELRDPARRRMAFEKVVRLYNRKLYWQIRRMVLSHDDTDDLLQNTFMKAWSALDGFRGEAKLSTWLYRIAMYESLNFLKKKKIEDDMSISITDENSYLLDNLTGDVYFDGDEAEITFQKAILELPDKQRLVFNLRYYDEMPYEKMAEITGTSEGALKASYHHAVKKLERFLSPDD

B1: AS22_4450 (protein)
chain: MELDDMKHAWQTLEQRLDQQAAQTGQLLGVVHEETVRSSLRPLWVAQTAQLLCALALAIVSARSWIPHTDQPVAVIGGVLLQAWCMALAISAMVQLQLLTQFNVAGPLLRTQHALARLRRWRTRVAPWLGVAFWVLWIAVADALWRALTGQTLPTDWLVLNLLVGVAGGIGTWLGFRRLQRAQHPWLERIDRAHAGTGVIRAERMLEEIARFQRD
For B1, the fold repression in the test with ECF25_1643 is 1.63 and 1.34; with ECF02_915 it was 2.12; in the test with ECF35_3582, 1.35; with ECF28_1040, 1.4; with ECF26_4464, 2.51; with ECF03_1198 it was 2.46. In addition, the fold repression with ECF15_524 worked out at 1.53; with ECF01_3473 it was 1.32; in the test with ECF37_2513, 1.51; in the test with ECF28_1088, 1.18; in the test with ECF20_992, 1.54; in the test with ECF38_1322, 1.78. The results for the fold repression in the test with ECF22_1147, with ECF25_1645 and with ECF03_1244 were 5.73, 1.42 and 1.75, respectively.

B2: AS20_992 (protein)
chain: MTPERFVHLADAYGADLQRWPSAERAAAQALLDCGDAQAVAALRQAHWLDSQLDRYQVPAPSPALAQRIIAAAQQPGAPFWSRYAGWLASLGWVGVGLTGVAAGMLAVALSLPLSTSAEALPSVFDQSDAEFVLSINAEEAEQ
As for B2, the fold repression with ECF25_1643 is 1.63 and 1.33; with ECF02_915, 1.93; with ECF35_3582, 1.6; in the test with ECF28_1040, 2.12; with ECF26_4464, 2.04; with ECF03_1198, 1.53. The fold repression with ECF15_524 stood at 1.58; with ECF01_3473, 2.3; with ECF37_2513, 1.98; with ECF28_1088, 2.27; with ECF20_992, 169; in the test with ECF38_1322, 1.72. Further, the fold repression with ECF22_1147 was found to be 2.47; with ECF25_1645, 1.3; with ECF03_1244, 1.39.

B3: AS25_1643_cl43 (protein)
chain: MTTDSNFNDPCRRQFSRDLPQKMARHTNEATGAMDMVKRDRFELLSAYLGGEVTAAERRQVEDWPANDVAVQRLYSRLLKLRQGIRTMPIPTAQQSPETTAEQVFAKVNRRSRLAWKLGGAAVAACVIGAVTNWLPGRQTGIPQLAQQPQEQPTQAVTTPDALPMIALNNPVIEIPKAAVASPTKFIQPQPQLGEIPPDIN
Take B3: the fold repression in the test with ECF25_1643 was 4.28 and 3.89; with ECF02_915, 6.67; with ECF35_3582, 1.57; with ECF28_1040 it was 1.09; with ECF26_4464, 6.66; in the test with ECF03_1198, 1.92. Further, the fold repression in the test with ECF15_524 stood at 1.18; in the test with ECF01_3473, 2.75; in the test with ECF37_2513, 1.9; with ECF28_1088, 1.48; in the test with ECF20_992, 1.99; with ECF38_1322, 0.931. Further, the fold repression in the test with ECF22_1147 is 5.45; with ECF25_1645, 7.28; in the test with ECF03_1244, 1.06.

B4: AS02_915 (protein)
chain: MEKTGQEWVSASVDGETDRQTLAELAADTDSHAKWQRYHLMGDAMRDELPQAMPLDLSARIAAALEDEPTILAPKVEREATQAPSRAVVVPFMRQLGQYGIAAAVALMAVVGVQNYQSTQDDAPLPVLNTRPLVGTATPVSLQTGPVANQNQGNANDQLLEQRRRINAYLQDHMLQQRLNTGAVVDDNSEVTPIPVNR
Consider B4, for which the fold repression with ECF25_1643 was 3.46 and 2.7; with ECF02_915, 29.2; with ECF35_3582, 2.65; with ECF28_1040 it was 2.03; in the test with ECF26_4464, 3.42; in the test with ECF03_1198 it was 3.28. In addition, the fold repression turned out to be 2.55 in the test with ECF15_524; 5.57 with ECF01_3473; 2.48 with ECF37_2513; 2.38 in the test with ECF28_1088; 4.44 with ECF20_992; 2.24 with ECF38_1322. The fold repression was determined as 4.49 in the test with ECF22_1147, 1.99 with ECF25_1645 and 3.01 with ECF03_1244.

B5: AS22_1147 (protein)
chain: MELDDIAVAWRSLEQRLDQHAALAGQVLGDLRSHAARAHLRPLWLSQSAQLLCAIALSGLVAHSWLAFPEQAAAIVGGVLLQIWCVALAASAARQLWLLSQLDFARPLLQTQRALAQLRRWRTRVAPWLGVAFWVLWVAVADAAWRALTGRSLPYAWLLCNLLVGVLGGIGTWLGYRRLQRSGHPWLERLDTVHAGRSVARTETLLEQIARFQRE
For B5, the fold repression is 2.46 and 1.99 in the test with ECF25_1643; 3.59 with ECF02_915; 1.94 with ECF35_3582; 1.78 with ECF28_1040; 3.82 with ECF26_4464; 2.82 in the test with ECF03_1198. For the same molecule, the fold repression with ECF15_524 was 2.65; with ECF01_3473, 3.03; with ECF37_2513 it was 3.66; with ECF28_1088 it was 2.19; with ECF20_992 it was 2.35; with ECF38_1322 it was 1.99. Further, the fold repression in the test with ECF22_1147 was 6.19; with ECF25_1645 it was 2.27; with ECF03_1244, 3.22.
